Test results taken from patent EP4233917A1, “ANTI-INFECTIVE CONJUGATE FOR USE IN THE TREATMENT OF ZIKA VIRUS INFECTION” (Universitat Pompeu Fabra, priority 2022, dated 2023).
Read-outs that look alike come from different tables or passages of the source. Ends that are not written are not given here. Peptide text beside a SMILES is read from it. * marks the point of attachment. X1 = C=CC1=C(C)c2cc3[nH]c(cc4nc(cc5[nH]c(cc1n2)c(C)c5CCC(=O)*)C(CCC(=O)O)=C4C)c(C)c3C=C; X3 = C=CC1=C(C)c2cc3[nH]c(cc4nc(cc5[nH]c(cc1n2)c(C)c5CCC(=O)O)C(CCC(=O)*)=C4C)c(C)c3C=C; X2 = CCC1=C(C)c2cc3[nH]c(cc4nc(cc5[nH]c(cc1n2)c(C)c5CCC(=O)O)C(CCC(=O)*)=C4C)c(C)c3CC; X4 = CCC1=C(C)c2cc3[nH]c(cc4nc(cc5[nH]c(cc1n2)c(C)c5CCC(=O)*)C(CCC(=O)O)=C4C)c(C)c3CC

Key:
JEG-3 cells [1] = test: in vitro BPB integrity assay (FD4 permeability) after translocation assay; type: cell-based
ZIKV^BR [2] = test: ZIKV inactivation assay (plaque assay on Vero cells); type: cell-based, Zika virus; conditions: virus pre-treated 1 h at 37 °C, in the dark, 0.01-50 µM
JEG-3 cells [3] = type: in vitro ADME; conditions: human, 24 h, 10 µM
Protocol: (§1) PPC translocation (%) was calculated as follows: […]

HBEC-5i cells [4] = type: in vitro ADME; conditions: human, 24 h, 10 µM
Protocol: as §1

HBEC-5i cells [5] = tested on: HBEC-5i cells
Protocol: (§2) After 24 h incubation with conjugates in the set-up shown in Figure 1, an in vitro integrity assay was performed. HBEC-5i (for BBB) or JEG-3 (for BPB) cells were washed twice with PBS and once with a medium without phenol red. DMEM:F12 medium was used with HBEC-5i cells and EMEM medium was used with JEG-3 cells. Then, previously diluted 4 kDa fluorescein isothiocyanate-dextran (FD4) (Sigma-Aldrich, Spain) in the medium indicated above for each cell line and without phenol red to an absorbance of 0.1 was added to the apical side (1) and incubated for 2 h. Samples were collected at the basolateral side (2), and fluorescence intensity was measured at λex=493 nm and λem=520 nm using a Varioskan Lux plate reader. Barrier integrity was evaluated from FD4 permeability as follows: FD4 Permeability(%) = (Fi −Fcells)/(FFD4 −FMedium) × 100 [formula] where Fi is the fluorescence intensity of the sample at the basolateral side (2), Fcells is the intrinsic fluorescence intensity of cells without FD4 incubation, FFD4 is the intensity of FD4 stock initially added to the apical side (1), and FMedium is the intensity of the medium indicated above for each cell line and without phenol red.

ZIKV = conditions: read-out: IC50 value for inactivation of ZIKV, cited from earlier work
HBEC-5i cells [6] = conditions: FD4 content in basolateral side after 24 h incubation with compound, then 2 h FD4; untreated BBB 10.3%
Protocol: as §2

[7] = Serum stability in human serum; type: in vitro ADME; conditions: for half-life at 0.05 mM: human serum (1:1 v/v with HEPES buffer), pH 7.8, 37 °C, read-out: Serum half-life time (converted)
Protocol: Next, 600 µL of the solution comprising the conjugate or peptide were mixed (1:1 v/v) with 600 µL of human serum, to reach a final concentration of 0.05 mM. The mixture was incubated at 37 °C and, at various time points, 50 µL (in triplicate) were taken and precipitated with 200 µL cold methanol. The samples were centrifuged at 13000 rpm, 10 min, +4 °C. Afterwards, 50 µL of each supernatant were injected on an LC-20AD instrument (Shimadzu) equipped with a Luna C18 column (4.6 mm × 50 mm, 3 µm, Phenomenex, USA) and analyzed using a 0%-95% linear gradient of MeCN into 0.1% TFA in H2O over 15 min with 1 mL/min flow rate. PDA detection at 220 nm and 401 nm was used and the half-life times were calculated by peak area integration at 401 nm, the λmax of MP and PP. Controls included blank serum (25 µL each of 1:1 v/v serum + HEPES buffer, then precipitation with 200 µL cold methanol), untreated conjugate/peptide (25 µL of 0.1 mM stock in HEPES buffer + 25 µL HEPES buffer, then precipitation with 200 µL cold methanol), and a zero-time sample (200 µL cold methanol + 25 µL serum + 25 µL 0.1 mM conjugate/peptide stock), the conjugate/peptide added last to avoid any contact with protease. Controls were analyzed by LC and LC-MS as described above.

ZIKV^BR [8] = conditions: virus pre-treated 1 h at 37 °C, in the dark, 0.01-50 µM
Protocol: ZIKV^BR was propagated in C6/36 cells using a multiplicity of infection (MOI) of 0.01. After infection, cells were cultured for 7 days. The culture medium collected from the infected cultures was centrifuged at 700 g to remove cellular debris, stored in aliquots at -80 °C and titrated by plaque assay.
To determine the effect of conjugates on ZIKV^BR as prepared above, 10^5 plaque forming units (PFU) were pre-treated with different concentrations of conjugates in the 0.01-50 µM range for 1 h at 37 °C, in the dark. After treatment, viral samples were serially diluted (10-fold) for titration by plaque assay. Samples were incubated for 1 h at 37 °C and 5% CO2 with Vero cells. After infection, the medium was removed and 1 mL DMEM containing 1% (v/v) FBS, 100 U/mL penicillin, 100 µg/mL streptomycin and 1.5% carboxymethylcellulose was added to each well. The plates were incubated at 37 °C and 5% CO2. After 5 days cells were fixed by 1 mL of 4% (v/v) formaldehyde in H2O for 30 min. Each plate was washed and stained with a 1% (v/v) crystal violet, 20% (v/v) ethanol solution. The number of plaques on each well was counted and corrected for well dilution to determine the pfu/mL number. The half-maximum inhibitory concentration (IC50) was determined by non-linear regression with sigmoidal profile and variable slope using the software Graphpad Prism (version 6.0), only on treatments that achieved total inhibition.

JEG-3 cells [9] = conditions: JEG-3, concentrations of up to 50 µM, 24 h
Protocol: (§3) HBEC-5i cells and JEG-3 cells were plated in attachment factor protein and rat-tail collagen, respectively, pre-coated 96-well flat bottom clear, black polystyrene plate (Corning, New York, USA). Afterwards cells were cultured in complete medium at 37 °C in a 5% CO2 atmosphere, with medium replaced every 2 days. When the cellular monolayer was formed, cells were treated with various concentrations of conjugates in the 6.25-50 µM range, for 24 h at 37 °C in a 5% CO2 atmosphere. Viability was evaluated by the CellTiter-Blue® assay (Promega, WI, USA), based on resazurin reduction into highly fluorescent resorufin by metabolically active cells. By distinguishing metabolic from non-metabolic cells, cytotoxicity can be indirectly determined. After incubation, cells were washed with PBS, pH 7.4, and 15 µL of CellTiterBlue® reagent in 100 µL of complete medium was added to the cells and incubated for 1.5 h at 37 °C in 5% CO2. Fluorescence (λex=560 nm, λem=590 nm), was measured in a Varioskan Lux plate reader. Complete medium and medium containing 0.25% Triton X-100 were used as positive and negative controls (100 and 0% viability), respectively. Cell viability (%) was determined as: Cell viability(%) = (F_treated−F_blank)/(F_(nontreated)−F_blank) × 100 [formula] where Ftreated is the fluorescence intensity of cells treated with a conjugate, Fnon treated is the fluorescence of untreated cells and Fblank is the fluorescence of CellTiterBlue® reagent in complete medium without cells.

JEG-3 cells [10] = conditions: 10 µM on apical side, 24 h incubation; percentage of compound in the basolateral side
Protocol: (§4) Conjugate translocation was determined by fluorescence intensity (λex= 410 nm, λem = 625 nm for MP conjugates; λex=410 nm, λem=635 nm for PP conjugates). […] After 24 h incubation, samples from the basolateral side (2) were collected and analyzed. Fluorescence was measured in a Varioskan Lux plate reader (Thermo Scientific). PPC translocation (%) was calculated as follows: PPC translocation(%) = (F_i−Fcells)/(F_PPC−F_Medium) × 100 [formula] where Fi is the fluorescence intensity of the sample collected at the basolateral side (2), Fcells is the intrinsic fluorescence intensity of cells without incubation with a peptide-protein conjugate PPC, FPPC is the intensity of total PPC initially added to the transwell apical side (1), and FMedium is the intensity of DMEM:F12 medium without phenol red.
JEG-3 cells were cultured as a monolayer on T-flasks in EMEM supplemented with 10% (v/v) FBS and 1% (v/v) Pen-Strep. Cells were grown in a humidified atmosphere of 5% CO2 at 37 °C with the medium changed every other day. Cells were allowed to grow until confluence in a culture T-flask, then carefully harvested with trypsin-EDTA and seeded (3000 cells/well) onto rat-tail collagen-coated tissue culture 24-well inserts (4). A cellular monolayer (3) with low permeability was formed 5 days after the incubation on the tissue culture insert (4). BPB translocation and integrity measurement methods are identical to those for the BBB in vitro model defined above.

HBEC-5i cells [11] = conditions: concentrations of up to 50 µM, 24 h
Protocol: as §3

HBEC-5i cells [12] = conditions: 10 µM on apical side, 24 h incubation; percentage of compound in the basolateral side
Protocol: HBEC-5i cells were cultured as a monolayer (3) on T-flasks in DMEM:F12 supplemented with 10% (v/v) FBS, 1% (v/v) Pen-Strep and 1% (v/v) ECGS. Cells were grown in a humidified atmosphere of 5% CO2 at 37 °C (MCO-18AIC (UV), Sanyo, Japan) with the medium changed every other day. Cells were allowed to grow until confluence in a culture T-flask, then carefully harvested with trypsin-EDTA and seeded (8000 cells/well) into tissue culture 24-well inserts (4) (transparent polyester membrane with 1.0 µm pores) (BD Falcon, USA) pre-coated with attachment factor protein solution. The medium was changed every other day for 5-8 days, afterwards cells were washed with 1 × PBS followed by DMEM:F12 medium without phenol red. Next, the conjugates were diluted in DMEM:F12 without phenol red, until reaching a final 10 µM concentration, and were added to the apical side (1) of the in vitro BBB model.
as §4

JEG-3 cells [13] = conditions: FD4 content in basolateral side after 24 h incubation with compound, then 2 h FD4; untreated BPB 1.23%
Protocol: as §2
JEG-3 cells were cultured as a monolayer on T-flasks in EMEM supplemented with 10% (v/v) FBS and 1% (v/v) Pen-Strep. Cells were grown in a humidified atmosphere of 5% CO2 at 37 °C with the medium changed every other day. Cells were allowed to grow until confluence in a culture T-flask, then carefully harvested with trypsin-EDTA and seeded (3000 cells/well) onto rat-tail collagen-coated tissue culture 24-well inserts (4). A cellular monolayer (3) with low permeability was formed 5 days after the incubation on the tissue culture insert (4).

Molecule | BBB FD4 (%) (HBEC-5i cells [6]) | half-life at 0.05 mM [7] [h] | IC50 (ZIKV^BR [8]) [µM] | altered cell viability (JEG-3 cells [9]) | BPB translocation (%) (JEG-3 cells [10]) | altered cell viability (HBEC-5i cells [11]) | BBB translocation (%) (HBEC-5i cells [12]) | BPB FD4 (%) (JEG-3 cells [13]) | also measured
C=CC1=C(C)c2cc3[nH]c(cc4nc(cc5[nH]c(cc1n2)c(C)c5CCC(=O)O)C(CCC(=O)O)=C4C)c(C)c3C=C [PP, protoporphyrin IX] |  |  |  |  |  |  |  |  | BPB FD4 (%) (JEG-3 cells [1]; human, 2 h, 10 µM): 0.87%; IC50 (ZIKV^BR [2]; Zika virus, Vero): > 50 µM; BPB translocation (%) (JEG-3 cells [3]): 14.2%; BBB translocation (%) (HBEC-5i cells [4]): 47.8%; BBB FD4 (%) (HBEC-5i cells [5]; human, 2 h, 10 µM): 24.7%
C=Cc1c(C)c2cc3[nH]c(cc4nc(cc5nc(cc1[nH]2)C(C)=C5CCC(=O)[O-])C(CCC(=O)[O-])=C4C)c(C)c3C=C.[Co+2] [CoPPIX] |  |  |  |  |  |  |  |  | IC50 (ZIKV; with light activation): 5.79 µM; IC50 (ZIKV; without light activation): 2.49 µM
CCC1=C(C)c2cc3[nH]c(cc4[nH]c(cc5nc(cc1n2)C(C)=C5CC)c(C)c4CCC(=O)O)c(CCC(=O)O)c3C [MP, mesoporphyrin IX] |  |  |  |  |  |  |  |  | BPB FD4 (%) (JEG-3 cells [1]): 1.68%; IC50 (ZIKV^BR [2]): > 50 µM; BBB FD4 (%) (HBEC-5i cells [5]): 17.9%
C=CC1=C(C)c2cc3[nH]c(cc4nc(cc5[nH]c(cc1n2)c(C)c5CCC(=O)NCCCC[C@H](NC(=O)[C@H](CC(C)C)NC(=O)[C@H](CO)NC(=O)[C@H](Cc1ccccc1)NC(=O)[C@H](CCCNC(=N)N)NC(=O)[C@H](CCCCN)NC(=O)[C@@H](NC(=O)[C@H](CC(C)C)NC(=O)[C@H](CCC(N)=O)NC(=O)[C@H](CCC(N)=O)NC(=O)[C@@H](N)C(C)C)[C@@H](C)O)C(N)=O)C(CCC(=O)O)=C4C)c(C)c3C=C [Compound P2-PP] (H-VQQLTKRFSLK(X1)-NH2) | 13.7 | 3.6 | > 50 | none | 7.9 | none | 35.1 | 0.90 | 
C=CC1=C(C)c2cc3[nH]c(cc4nc(cc5[nH]c(cc1n2)c(C)c5CCC(=O)O)C(CCC(=O)N[C@@H](CO)C(=O)NCC(=O)N[C@H](C(=O)N[C@@H](CCC(N)=O)C(=O)N[C@@H](CCC(=O)O)C(=O)N[C@@H](CCC(=O)O)C(=O)N[C@@H](Cc1ccc(O)cc1)C(N)=O)[C@@H](C)O)=C4C)c(C)c3C=C [PP-P3] (X3-SGTQEEY-NH2) | 9.6 | 3.7 | > 50 | none | 18.9 | none | 43.2 | 1.79 | 
CCC1=C(C)c2cc3[nH]c(cc4nc(cc5[nH]c(cc1n2)c(C)c5CCC(=O)O)C(CCC(=O)NCCCC[C@H](NC(=O)[C@H](CC(C)C)NC(=O)[C@H](CO)NC(=O)[C@H](Cc1ccccc1)NC(=O)[C@H](CCCNC(=N)N)NC(=O)[C@H](CCCCN)NC(=O)[C@@H](NC(=O)[C@H](CC(C)C)NC(=O)[C@H](CCC(N)=O)NC(=O)[C@H](CCC(N)=O)NC(=O)[C@@H](N)C(C)C)[C@@H](C)O)C(N)=O)=C4C)c(C)c3CC [Compound P2-MP] (H-VQQLTKRFSLK(X2)-NH2) | 14.5 | 10.7 | > 50 | none | 6.9 | none | 25.5 | 1.30 | 
C=CC1=C(C)c2cc3[nH]c(cc4nc(cc5[nH]c(cc1n2)c(C)c5CCC(=O)O)C(CCC(=O)NCCCC[C@H](NC(=O)[C@H](Cc1ccc(O)cc1)NC(=O)[C@H](CCC(=O)O)NC(=O)[C@H](CCC(=O)O)NC(=O)[C@H](CCC(N)=O)NC(=O)[C@@H](NC(=O)CNC(=O)[C@@H](N)CO)[C@@H](C)O)C(N)=O)=C4C)c(C)c3C=C [Compound P4-PP] (H-SGTQEEYK(X3)-NH2) | 10.6 | 3.3 | > 50 | none | 15.6 | none | 42.8 | 1.2 | 
CCC1=C(C)c2cc3[nH]c(cc4nc(cc5[nH]c(cc1n2)c(C)c5CCC(=O)O)C(CCC(=O)NCCCC[C@H](NC(=O)[C@H](Cc1ccc(O)cc1)NC(=O)[C@H](CCC(=O)O)NC(=O)[C@H](CCC(=O)O)NC(=O)[C@H](CCC(N)=O)NC(=O)[C@@H](NC(=O)CNC(=O)[C@@H](N)CO)[C@@H](C)O)C(N)=O)=C4C)c(C)c3CC [Compound P4-MP] (H-SGTQEEYK(X2)-NH2) | 15.6 | 3 | > 50 | none | 13 | none | 45.8 | 1.1 | 
CCC1=C(C)c2cc3[nH]c(cc4nc(cc5[nH]c(cc1n2)c(C)c5CCC(=O)N[C@@H](CO)C(=O)NCC(=O)N[C@H](C(=O)N[C@@H](CCC(N)=O)C(=O)N[C@@H](CCC(=O)O)C(=O)N[C@@H](CCC(=O)O)C(=O)N[C@@H](Cc1ccc(O)cc1)C(N)=O)[C@@H](C)O)C(CCC(=O)O)=C4C)c(C)c3CC [MP-P3] (X4-SGTQEEY-NH2) | 14.6 | 21.1 | 25.1 | none | 14.2 | none | 46.6 | 1.17 | 
C=CC1=C(C)c2cc3[nH]c(cc4nc(cc5[nH]c(cc1n2)c(C)c5CCC(=O)N[C@H](C(=O)N[C@@H](CCC(N)=O)C(=O)N[C@@H](CCC(N)=O)C(=O)N[C@@H](CC(C)C)C(=O)N[C@H](C(=O)N[C@@H](CCCCN)C(=O)N[C@@H](CCCNC(=N)N)C(=O)N[C@@H](Cc1ccccc1)C(=O)N[C@@H](CO)C(=O)N[C@@H](CC(C)C)C(N)=O)[C@@H](C)O)C(C)C)C(CCC(=O)O)=C4C)c(C)c3C=C [(I)] (X1-VQQLTKRFSL-NH2) | 13.6 | 22.2 |  | none | 21.2 | none | 43.6 | 0.83 | 
CCC1=C(C)c2cc3[nH]c(cc4nc(cc5[nH]c(cc1n2)c(C)c5CCC(=O)N[C@H](C(=O)N[C@@H](CCC(N)=O)C(=O)N[C@@H](CCC(N)=O)C(=O)N[C@@H](CC(C)C)C(=O)N[C@H](C(=O)N[C@@H](CCCCN)C(=O)N[C@@H](CCCNC(=N)N)C(=O)N[C@@H](Cc1ccccc1)C(=O)N[C@@H](CO)C(=O)N[C@@H](CC(C)C)C(N)=O)[C@@H](C)O)C(C)C)C(CCC(=O)O)=C4C)c(C)c3CC [MP-P1] (X4-VQQLTKRFSL-NH2) | 19.9 | 16.2 | > 50 | none | 6.9 | none | 30 | 1.16 | 
VQQLTKRFSL-NH2 [Peptide having SEQ ID NO1, reference compound] |  |  |  |  |  |  |  |  | Serum half-life time ([7]; 0.05 mM, 37 °C): 0.73 h
